Measured values: patent US20070087986A1, “Compositions and methods for enhancing immunity by chemoattractant adjuvants” (priority 2004, published 2007)
Non-standard residues stand in square brackets, D forms with d. No end group written: not given here.

T1: FPRL1 (Homo sapiens, UniProt P25090)
T1 sequence (P25090 1-351): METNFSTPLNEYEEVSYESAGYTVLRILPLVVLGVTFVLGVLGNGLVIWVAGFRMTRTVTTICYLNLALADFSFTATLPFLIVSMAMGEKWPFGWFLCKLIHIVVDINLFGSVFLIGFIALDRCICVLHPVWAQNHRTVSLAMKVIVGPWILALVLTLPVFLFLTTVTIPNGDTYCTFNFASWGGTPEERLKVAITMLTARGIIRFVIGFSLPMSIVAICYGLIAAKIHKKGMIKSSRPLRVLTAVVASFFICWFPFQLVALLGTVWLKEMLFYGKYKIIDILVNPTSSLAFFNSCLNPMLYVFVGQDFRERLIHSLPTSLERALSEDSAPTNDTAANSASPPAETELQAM


What was measured:
Female BALB/C mice = assay type: in vivo; settings: for levels of antigen specific IgA antibodies: mucosal samples, day 21, intranasal rPA plus adjuvant; for levels of antigen specific IgG antibodies: serum, day 21, intranasal rPA 10 μg plus adjuvant, vs rPA alone
FPRL1 = target: T1, FPRL1; assay: FPRL1 activity of SHAAGtide and truncated and other variants; settings: in words: high, moderate, low
From the text: In addition to the agonists and antagonists shown in TABLE 4, SHAAGtide polypeptides were also shown to modulate FPRL1 activity. The term “SHAAGtide” includes SHAAGtide polypeptides (shown in TABLE 5), including isolated or purified SHAAGtide polypeptides, proteins or biologically active fragments separated from or recovered from a component of its natural environment; and polynucleotides shown in TABLE 6, truncated variants and other variants thereof, including naturally occurring allelic variants, derivatives and analogs. SHAAGtide polypeptides are derived from the alternatively spliced variant of CKβ8, namely CKβ8-1. CKβ8-1 is a 116 amino acid long polypeptide that includes the sequence of SHAAGtide polypeptides. […]

Molecule	levels of antigen specific IgA antibodies (Female BALB/C mice)	levels of antigen specific IgG antibodies (Female BALB/C mice)	FPRL1 Activity (FPRL1)
5′-TCCATGACGTTCCTGATGCT-3′ (chemistry not given here) [CpG, CpG oligonucleotide, ligand for TLR9, reference compound]	did not induce significant levels	did not induce significant levels	
IGPQMTLSHAAG [CCXP4]			Low
LWRRKIGPQMTLSH [CCXP11]			Moderate
MLWRRKIGPQM [CCXP8]			Moderate
MLWRRKIGPQMT [CCXP5]			Moderate
MLWRRKIGPQMTLSH [CCXP3]			High
MLWRRKIGPQMTLSHAAG [CCXP1]	did not induce significant levels	did not induce significant levels	sequence high
MLWRRKIGPQMTLSHAAY [CCXP6]			high
RRKIGPQMTLSHAAG [CCXP2]			Low
Trp-Lys-Tyr-Met-Val-D-Met-CONH2 (WKYMV[dM]-NH2) [W-tide, WKYMV-(d-Met)-CONH2, synthetic hexapeptide ligand of FPRL1, reference compound]	did not induce significant levels	did not induce significant levels	
WRRKIG [CCXP10]			Low activity
WRRKIGPQM [CCXP9]			Low activity
WRRKIGPQMTLSHAAG [CCXP7]			Low activity
mJE: chemokine mJE (SEQ ID NO: 60), used as chemoattractant adjuvant	did not induce significant levels	did not induce significant levels	
mC5a: chemoattractant mC5a (SEQ ID NO: 62) (protein, listed as Homo sapiens) NLHLLRQKIEEQAAKYKHSVPKKCCYDGARVNFYETCEERVARVTIGPLCIRAFNECCTIANKIRKESPHKPVQLGR	did not induce significant levels	did not induce significant levels	
